Article PMC8626583, “Collagen’s primary structure determines collagen:HSP47 complex stoichiometry” (The Journal of Biological Chemistry, 2021)
“And” between values parts separate entries of the source, which are not always exact repeats. Equal values may be shown once.

How the values were obtained:
[1] = target: T1, foldon-stabilized collagen model peptide with the guest GPRGPP; test: AUC; sedimentation velocity with fluorescence detection; ATTO488-labelled foldon CMP at 1 μM with HSP47 at ratios (CMP:HSP47) 1:1 to 1:20; 20 mM HEPES, 150 mM NaCl pH 7.5; 42,000 rpm
[2] = target: T2, foldon-stabilized collagen model peptide with the guest GPRGFP; test: as above
[3] = target: T1, foldon-stabilized collagen model …; test: ELISA; collagen model peptides or collagen I coated on Nunc MaxiSorp (500 ng/well), blocked with 1% BSA in TBS; soluble HSP47 in a 1:4 dilution series from 8 or 10 μM; detected by anti-His-HRP; triplicates, four-parameter logistic fit
[4] = target: T2, foldon-stabilized collagen model …; test: as above

stoichiometry N (HSP47 per CMP trimer) [1]: 2
stoichiometry N (HSP47 per CMP trimer) [2]: 1
Kd [3]: 0.036 µM and 0.0217 µM
Kd [4]: 0.012 µM
B1: HSP47 (heat shock protein 47), Canis lupus, residues 36-418 with C-terminal hexahistidine tag, C7C419 36-418 (natural protein)
chain: LSPKAATLAERSAGLAFSLYQAMAKDQAVENILLSPVVVASSLGLVSLGGKATTASQAKAVLSAEQLRDEEVHAGLGELLRSLSNSTARNVTWKLGSRLYGPSSVSFAEDFVRSSKQHYNCEHSKINFRDKRSALQSINEWAAQTTDGKLPEVTKDVERTDGALLVNAMFFKPHWDEKFHHKMVDNRGFMVTRSYTVGVTMMHRTGLYNYYDDEKEKLQIVEMPLAHKLSSLIILMPHHVEPLERLEKLLTKEQLKIWMGKMQKKAVAISLPKGVVEVTHDLQKHLAGLGLTEAIDKNKADLSRMSGKKDLYLASVFHATAFEWDTEGNPFDQDIYGREELRSPKLFYADHPFIFLVRDTQSGSLLFIGRLVRPKGDKMRDEL
